Patent US6558950 (MCGILL UNIVERSITY, dated 2003)
No end group written: not given here.

What was measured:
[1] = molecular target: T1, Bax (transfected, 293T cells) (UniProt Q07812 1-192, limits assumed); assay: anti-Flag co-immunoprecipitation, anti-Bax Western blot
T1 construct: Detected with rabbit anti-Bax sc-526; also called the pro-apoptotic member of the Bcl-2 family
Method: After centrifugation at 11,000 g, the supernatant was incubated with 50 µl of a 1:1 slurry of protein G Sepharose for 1 hour at 4° C. The Sepharose was removed and the supernatant incubated with mouse M2 anti-Flag antibody (IBI-A Kodak Co., New Haven, Conn.) at 4° C. for 6–8 hours, at which time 20 µl of a 1:1 slurry of proteinG Sepharose was added. After 1 hour at 4° C., the beads were recovered, washed, and boiled in SDS sample buffer. Following SDS PAGE and transfer to nitrocellulose, blots were developed with either mouse anti-Myc 9E1D antibody or mouse anti-HA 12CA5 antibody (both from Babco, Berkeley, Calif.) or rabbit anti-Bax sc-526 antibody (commercially available from Santa Cruz Biotech., Inc., Santa Cruz, Calif.).

32P-Bcl-2Δc21/his6/HMK [2] = molecular target: T2, 32P-Bcl-2Δc21/his6/HMK (human, UniProt P10415 1-218, 32P-labelled with heart muscle kinase and 32P-gamma-ATP at the C-terminal HMK recognition sequence (arg-arg-ala-ser)); assay: Far Western blot of purified GST fusion proteins
T2 construct: range 1-218; Expressed in E. coli from the pTrchis vector; a soluble mixture of monomers and dimers at pH 7.4; also called 32P-labelled Bcl-2 cytosolic domain probe
T2 sequence (P10415 other isoform, or with tags, fused parts or gaps mutant limits assumed): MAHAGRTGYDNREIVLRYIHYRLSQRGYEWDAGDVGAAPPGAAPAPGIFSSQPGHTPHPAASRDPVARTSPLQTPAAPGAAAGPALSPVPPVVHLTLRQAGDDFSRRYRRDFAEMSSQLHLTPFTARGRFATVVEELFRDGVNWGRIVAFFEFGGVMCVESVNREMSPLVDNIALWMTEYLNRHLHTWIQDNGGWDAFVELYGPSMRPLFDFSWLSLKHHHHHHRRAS

32P-Bcl-2Δc21/his6/HMK [3] = molecular target: T2, 32P-Bcl-2Δc21/his6/HMK; assay: Far Western blot of reverse phase HPLC fractions (FIG. 2B)
Method: Aliquots of fractions eluted from the gel were assayed by ^32P-Bcl-2Δc21/his6/HMK Far Western blotting analysis, and the radioactive bands corresponding to p20 and p21 Bax were detected and quantified by Phosphorimager. The levels relative to the maximal signal detected (set at 100) were plotted as a bar graph (upper panel). […] The positions of molecular mass marker proteins are indicated. The black bars on the graph indicate p20. The white stippled bars on the graph indicate p21 Bax. Figure 2B: FIG. 2B is a reverse phase HPLC analysis ($A280$ profile; upper panel) and corresponding graph (lower panel) showing proteins eluted between 190 and 220 ml from the preparative SDS PAGE of FIG. 2A. Equal aliquots from all fractions were assayed for ^32P-Bcl-2Δc21/his6/HMK interacting protein by Far Western blotting analysis, for which only p20 was detected. Amounts relative to the maximal signal detected (set at 100) were plotted as a bar graph (lower panel). […]
Identification of the p20 Bcl-2-binding polypeptide was obtained by NH_2-terminal peptide sequence analysis of p20 following its isolation by a combination of differential solubilization in detergent, preparative SDS PAGE, and reverse phase HPLC (FIGS. 2A and 2B). […] One candidate sequence emerged, and was the only sequence that was detected in the peak fraction of Bcl-2 binding activity (fraction 54, FIG. 2B).

[4] = molecular target: T3, 35S-labelled transcription-translation product of p28 Bap31 cDNA
T3 chain: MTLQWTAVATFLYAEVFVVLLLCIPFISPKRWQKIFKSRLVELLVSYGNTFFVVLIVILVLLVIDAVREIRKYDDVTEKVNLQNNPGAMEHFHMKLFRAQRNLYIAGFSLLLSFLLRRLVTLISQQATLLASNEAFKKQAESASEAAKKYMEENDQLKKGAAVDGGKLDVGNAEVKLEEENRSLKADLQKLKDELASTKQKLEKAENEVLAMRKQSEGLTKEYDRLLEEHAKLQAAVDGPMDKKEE

T1 sequence (Q07812 whole entry): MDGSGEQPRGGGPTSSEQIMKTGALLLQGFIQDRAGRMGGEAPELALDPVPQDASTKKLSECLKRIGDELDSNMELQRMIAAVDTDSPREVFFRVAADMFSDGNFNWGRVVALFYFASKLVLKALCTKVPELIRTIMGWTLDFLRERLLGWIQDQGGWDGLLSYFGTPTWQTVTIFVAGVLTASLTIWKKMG

B1: Flag-tagged p28 Bap31 (other)
chain: MTLQWTAVATFLYAEVFVVLLLCIPFISPKRWQKIFKSRLVELLVSYGNTFFVVLIVILVLLVIDAVREIRKYDDVTEKVNLQNNPGAMEHFHMKLFRAQRNLYIAGFSLLLSFLLRRLVTLISQQATLLASNEAFKKQAESASEAAKKYMEENDQLKKGAAVDGGKLDVGNAEVKLEEENRSLKADLQKLKDELASTKQKLEKAENEVLAMRKQSEGLTKEYDRLLEEHAKLQAAVDGPMDYKDDDDKAMDKKEE
Does B1 bind [1]?
Result: no binding

B2: GST-p28 (122-164) (other)
chain: LISQQATLLASNEAFKKQAESASEAAKKYMEENDQLKKGAAVD
modifications: also: GST fusion
notes: Expressed in E. coli and purified on glutathione Sepharose; not shown: glutathione S-transferase encoded by pGEX-2T (Pharmacia)
Does B2 bind (32P-Bcl-2Δc21/his6/HMK [2])?
Result: no binding

B3: p20 cleavage product of p28 Bap31 (other)
chain: MTLQWTAVATFLYAEVFVVLLLCIPFISPKRWQKIFKSRLVELLVSYGNTFFVVLIVILVLLVIDAVREIRKYDDVTEKVNLQNNPGAMEHFHMKLFRAQRNLYIAGFSLLLSFLLRRLVTLISQQATLLASNEAFKKQAESASEAAKKYMEENDQLKKGAAVD
notes: Endogenous product in apoptotic human KB cells, on SDS-PAGE blots; also called cleavage product "b"
Does B3 bind (32P-Bcl-2Δc21/his6/HMK [3])?
Result: binds

B4: GST-p28 (1-164) (other)
chain: B3 chain
notes: Expressed in E. coli and purified on glutathione Sepharose; also called GST-p20; not shown: glutathione S-transferase encoded by pGEX-2T (Pharmacia)
Does B4 bind (32P-Bcl-2Δc21/his6/HMK [2])?
Result: binds

B5: FLICE (caspase-8) (protein)
chain: SESQTLDKVYQMKSKPRGYCLIINNHNFAKAREKVPKLHSIRDRNGTHLDAGALTTTFEELHFEIKPHDDCTVEQIYEILKIYQLMDHSNMDCFICCILSHGDKGIIYGTDGQEAPIYELTSQFTGLKCPSLAGKPKVFFIQACQGDNYQKGIPVETDSEEQPYLEMDLSSPQTRYIPDEADFLLGMATVNNCVSYRNPAEGTWYIQSLCQSLRERCPRGDDILTILTEVNYEVSNKDDKKNMGKQMPQPTFTLRKKLVFPSD
For B5, which “p20 cleavage product quantitated on a Phosphorimager” value [4] is on record?
The value was “p28 Bap31 was more sensitive to cleavage by FLICE (caspase-8) than ICE (caspase-1)”.

B6: GST-p28 (1-246) (other)
chain: T3 chain
notes: Expressed in E. coli and purified on glutathione Sepharose; The thrombin-site linker of pGEX-2T is not described; also called GST-p28 Bap31; not shown: glutathione S-transferase encoded by pGEX-2T (Pharmacia)
Does B6 bind (32P-Bcl-2Δc21/his6/HMK [2])?
Result: binds

B7: CPP32 (caspase-3) (protein)
chain: SGISLDNSYKMDYPEMGLCIIINNKNFHKSTGMTSRSGTDVDAANLRETFRNLKYEVRNKNDLTREEIVELMRDVSKEDHSKRSSFVCVLLSHGEEGIIFGTNGPVDLKKITNFFRGDRCRSLTGKPKLFIIQACRGTELDCGIETDSGVDDDMACHKIPVEADFLYAYSTAPGYYSWRNSKDGSWFIQSLCAMLKQYADKLEFMHILTRVNRKVATEFESFSFDATFHAKKQIPCIVSMLTKELYFYH
With B7 as the binder, how does the “cleavage of 35S-labelled p28 Bap31 in vitro (SDS-PAGE)” value [4] read?
The value was “little reactivity was observed for caspase-3 over a wide range of enzyme concentration”.
